Target: IgM-BCR (Ighm) (mouse (endogenous in primary B cells))

With “recombinant mouse galectin-9 (rGal9, E. coli-derived, R&D Systems) (from UniProt O08573 1-353) (natural protein)” the median diffusion coefficient of IgM in galectin-9-high regions (against 0.028 μm^2/s in galectin-9-low regions), single-particle tracking on Gal9-KO B cells treated with fluorescently labeled rGal9 was 0.012 μm^2/s.

Source: PMC6098130
